According to article PMC10602183 (2023):

How the values were obtained:
Assay in all cases: SPR
Bal gp120 [1] = target: T1, Bal gp120 (HIV-1 clade B isolate Bal)
Bal gp120 [2] = target: T1, Bal gp120; remark: listed apart in the source
[3] = target: autologous gp120 antigen Czm (HIV-1 clade C isolate 96ZM652)
[4] = target: autologous gp120 antigen B (HIV-1 clade B isolate 92US715.6)
[5] = target: autologous gp120 antigen A2 (HIV-1 clade A isolate 92UG037.8)
[6] = target: wild type gp120 Env protein AE (HIV-1 clade E isolate 93TH976.17)

B1: HmAb64 (antibody, V domains shown)
VH: QVQLVQSGAEVKKPGASVKVSCKASGYTFTSYDITWVRQAPGQGLEWMGWISAYNGDTNYAQRLQGRVTMTTDTSTSTAYMELRSLRSDDTAVYYCARAKHTVLVTAMRWFDPWGQGTLVTVSS
VL: DIQMTQSPSSLSASVGDRVTITCRASQSISNYLNWYQQKPGKAPKLLISATSSLQSGVPSRFSGSGSGTDFTLTISSLQPDDFATYYCQQSYSTPWTFGQGTKLEIK
Kd (Bal gp120 [1]): 16 nM
koff (Bal gp120 [2]): 0.000459 s⁻¹
Kd [3]: 22.5 nM
koff [3]: 0.000454 s⁻¹
Kd [4]: 22.9 nM
koff [4]: 0.000684 s⁻¹
Kd [5]: 39.4 nM
koff [5]: 0.000641 s⁻¹
Kd [6]: 20 nM
koff [6]: 0.000423 s⁻¹
